Holding throughout (assay): cell-based or functional assay
For assay [1], the target named is HIV-1 envelope glycoprotein (Env) of isolate 93UG077, clade A (HIV-1).
Assay [2] concerns the target HIV-1 Env of isolate MGRM-D-029 (clade D pseudovirus) (HIV-1).
Assay [3] deals with HIV-1 Env of pseudovirus JRFL (HIV-1).
For assay [4], the target named is HIV-1 Env of pseudovirus MGRM-AG-006 (clade CRF_AG) (HIV-1).
Assay [5] has as its target HIV-1 Env of pseudovirus MGRM-F1-023 (HIV-1).
The target in assay [6] is HIV-1 envelope glycoprotein (Env) of isolate MGRM-A-011, clade A (HIV-1).
In assay [7] the target is HIV-1 APV-17 envelope glycoprotein (Env) on pseudovirus (HIV-1).
Assay [8] deals with HIV-1 Env of pseudovirus MGRM-AE-005 (clade CRF01_AE) (HIV-1).
The target in assay [9] is HIV-1 Env of isolate MGRM-Chronic-B-003, clade B, on pseudovirus (HIV-1).
For assay [10], the target named is HIV-1 JRCSF envelope glycoprotein (Env) on pseudovirus (HIV-1) (UniProt P20871).
The target in assay [11] is HIV-1 Env of pseudovirus MGRM-AG-002 (clade CRF_AG) (HIV-1).
Assay [12] has as its target HIV-1 Env of pseudovirus MGRM-F1-010 (HIV-1).
Assay [13] deals with HIV-1 envelope glycoprotein (Env) of isolate MGRM-A-007, clade A (HIV-1).
In assay [14] the target is HIV-1 Env of isolate MGRM-D-024 (clade D pseudovirus) (HIV-1).
The target of assay [15] is HIV-1 Env of isolate 92BR020, clade B, on pseudovirus (HIV-1).
Assay [16] has as its target HIV-1 Env of isolate MGRM-D-014 (clade D pseudovirus) (HIV-1).
The target of assay [17] is HIV-1 92TH021 envelope glycoprotein (Env) on pseudovirus (HIV-1).
The target in assay [18] is HIV-1 Env of isolate MGRM-A-012 (subtype A) (HIV-1).
Assay [19] concerns the target HIV-1 MGRM-C-027 Env (pseudovirus, clade C) (HIV-1).
Assay [20] has as its target HIV-1 envelope glycoprotein (Env) of isolate MGRM-C-015 (HIV-1).
The target of assay [21] is HIV-1 Env of isolate MG RM-D-001 (HIV-1).
For assay [22], the target named is HIV-1 Env of isolate MGRM-Chronic-B-003 (subtype B) (HIV-1).
The target in assay [23] is HIV-1 Env of isolate MG RM-D-005 (HIV-1).
Assay [24] has as its target HIV-1 Env of isolate MG RM-D-016 (HIV-1).
The target in assay [25] is HIV-1 Env of isolate SF162 (subtype B) (HIV-1) (UniProt P19550).
In assay [26] the target is HIV-1 Env of isolate TRO.11 (subtype B) (HIV-1).
Assay [27] addresses HIV-1 Env of isolate 94KE105 (subtype AC) (HIV-1).
Assay [28] has as its target HIV-1 Env of isolate 92TH021 (pseudovirus) (HIV-1).
In assay [29] the target is HIV-1 envelope glycoprotein (Env) of isolate MGRM-C-009 (HIV-1).
Assay [30] deals with HIV-1 Env of isolate QH0692.42 (subtype B) (HIV-1).
The target of assay [31] is HIV-1 Env of isolate MGRM-Chronic-B-023 (subtype B) (HIV-1).
In assay [32] the target is HIV-1 MGRM-AG-005 Env (pseudovirus) (HIV-1).
Assay [33] deals with HIV-1 envelope glycoprotein (Env) of isolate MGRM-C-022 (HIV-1).
Assay [34] addresses HIV-1 APV17 Env (pseudovirus, clade B) (HIV-1).

Sequence of 1443_C16 (PG16) (TCN-116) (antibody) (VH): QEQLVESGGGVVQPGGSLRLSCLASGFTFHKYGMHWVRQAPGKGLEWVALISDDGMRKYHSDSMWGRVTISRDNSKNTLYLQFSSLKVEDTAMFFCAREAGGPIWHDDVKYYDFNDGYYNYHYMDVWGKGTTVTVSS
Sequence of 1443_C16 (PG16) (TCN-116) (antibody) (VL): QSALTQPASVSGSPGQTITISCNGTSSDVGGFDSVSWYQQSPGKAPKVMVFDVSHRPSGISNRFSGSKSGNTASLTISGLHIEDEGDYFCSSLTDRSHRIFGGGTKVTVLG

Regarding 2F5 (antibody), the IC50 (µg/ml), pseudovirus neutralization in assay [1] was 3.3 µg/mL; in [2], above 50 µg/mL; in assay [3] it was 3.54 µg/mL; in assay [5], 1.78 µg/mL; in assay [6], above 50 µg/mL; in assay [9], 1 µg/mL. Further, the IC50 (µg/ml), pseudovirus neutralization in assay [12] was 14.6 µg/mL; in assay [13], 16.3 µg/mL; in assay [14], above 50 µg/mL; in assay [15], above 50 µg/mL; in assay [16], 2.22 µg/mL. For the same substance, the 50% inhibitory concentration (IC50) in assay [4] worked out at 0.85 µg/mL; in [8] it was 0.14 µg/mL; in assay [11], 0.54 µg/mL. The IC50, pseudovirus neutralization worked out at 2 µg/mL in assay [7], 3.36 µg/mL in [10] and 1.51 µg/mL in assay [17]. This substance displayed an IC90 (pseudovirus neutralization) in assay [10] of 25.3 µg/mL.

Regarding 2G12 (antibody), the IC50 (µg/ml), pseudovirus neutralization in [1] was above 50 µg/mL; in assay [2], above 50 µg/mL; in assay [3], 1.45 µg/mL; in assay [5] it was 9.23 µg/mL; in assay [6] it was above 50 µg/mL; in [9] it was 0.06 µg/mL. Further, the IC50 (µg/ml), pseudovirus neutralization is above 50 µg/mL in [13], above 50 µg/mL in [14], 4.84 µg/mL in assay [15] and above 50 µg/mL in assay [16]. For the same substance, the half-inhibitory concentration (IC50) is 3.92 µg/mL in assay [4], above 50 µg/mL in [8] and 0.54 µg/mL in assay [11]. Also, the results for the IC50, pseudovirus neutralization in assay [7], in assay [10] and in [17] were above 50 µg/mL, 0.66 µg/mL and above 50 µg/mL, respectively. Also, the IC90 (pseudovirus neutralization) in [10] was determined as 5.38 µg/mL.

As for 4E10 (antibody), the IC50 (µg/ml), pseudovirus neutralization came to 10.6 µg/mL in assay [1]; 5.3 µg/mL in [2]; 18.9 µg/mL in [3]; 0.44 µg/mL in assay [5]; 2.88 µg/mL in assay [6]; 3.5 µg/mL in assay [9]. In addition, the IC50 (µg/ml), pseudovirus neutralization was 3.69 µg/mL in [12]; 1.82 µg/mL in assay [13]; 3.6 µg/mL in assay [14]; above 50 µg/mL in [15]; 3.24 µg/mL in assay [16]. The half-maximal inhibitory concentration (IC50) in [4] worked out at 1.76 µg/mL; in [8] it was 0.47 µg/mL; in [11], 0.8 µg/mL. In addition, the IC50, pseudovirus neutralization turned out to be 5.1 µg/mL in [7], 6 µg/mL in assay [10] and 1.9 µg/mL in assay [17]. This substance displayed an IC90 (pseudovirus neutralization) in assay [10] of 44.1 µg/mL.

1443_C16 (PG16) (TCN-116) (antibody): the IC50 (µg/ml), pseudovirus neutralization in assay [1] was above 50 µg/mL; in [2], above 50 µg/mL; in assay [3], above 50 µg/mL; in assay [5], above 50 µg/mL; in [6], 0.24 µg/mL; in [9] it was 0.19 µg/mL. The IC50 (µg/ml), pseudovirus neutralization in assay [12] was 0.01 µg/mL; in [13] it was 5.91 µg/mL; in assay [14] it was 0.02 µg/mL; in [15], above 50 µg/mL; in assay [16], 0.003 µg/mL. The 50% inhibitory concentration (IC50) is above 50 µg/mL in assay [4], 0.02 µg/mL in assay [8] and 0.03 µg/mL in assay [11]. The IC50, pseudovirus neutralization in [7] was above 50 µg/mL; in assay [10], below 0.0025 µg/mL; in [17], 0.127 µg/mL. The same substance showed an IC90 (pseudovirus neutralization) in assay [10] of 0.013 µg/mL.

For 1495_C14 (PGC14) (antibody), the IC50 (µg/ml), pseudovirus neutralization in [1], in [2], in assay [3], in [5], in [6] and in [9] was above 50 µg/mL in each case. The IC50 (µg/ml), pseudovirus neutralization in assay [12] is above 50 µg/mL; in [13], above 50 µg/mL; in assay [14], above 50 µg/mL; in assay [15], 4 µg/mL; in [16] it was 48 µg/mL. Also, the IC50 in [4], in [8] and in assay [11] was above 50 µg/mL throughout. For the same substance, the IC50, pseudovirus neutralization in assay [7], in assay [10] and in assay [17] was above 50 µg/mL throughout.

For 5147_N06 (PGT-130) (antibody), the IC50 (µg/mL), pseudovirus neutralization is above 50 µg/mL in assay [18]; 0.344 µg/mL in assay [20]; above 50 µg/mL in assay [21]; above 50 µg/mL in assay [23]; above 50 µg/mL in [24]; 0.004 µg/mL in [27]. Besides, the results for the IC50 (µg/mL), pseudovirus neutralization in [29] and in [33] were above 50 µg/mL and 0.127 µg/mL, respectively. Also, the IC50 neutralization was 0.0052 µg/mL in assay [19]; above 50 µg/mL in [22]; 0.007 µg/mL in assay [25]; 0.257 µg/mL in [26]; above 50 µg/mL in assay [30]; above 50 µg/mL in assay [31]. Further, in assay [34], the IC50 neutralization was above 10 µg/mL. In [28], this substance displayed a Polyclonal Transfectant Neutralization Index of 4.2. For the same substance, the Primary Neutralization Index (B cell culture supernatant) in [28] stood at 538. Besides, the Neutralization by PGT-130, IC50 in [32] was 0.947 µg/mL. In assay [32], this substance showed a Neutralization by PGT-130, IC80 above 10 µg/mL. Further, in [32], the Neutralization by PGT-130, IC90 is above 10 µg/mL. This substance returned a Neutralization by PGT-130, IC95 in assay [32] above 10 µg/mL. The same substance came in with a neutralization IC50 (pseudovirus) in assay [32] of 0.947 µg/mL.

As for b12 (antibody), the IC50 (µg/ml), pseudovirus neutralization in assay [1] was 47 µg/mL; in [2] it was above 50 µg/mL; in assay [3], 0.02 µg/mL; in [5], above 50 µg/mL; in assay [6] it was 4.01 µg/mL; in assay [9], above 50 µg/mL. The IC50 (µg/ml), pseudovirus neutralization in assay [12] is above 50 µg/mL; in [13], above 50 µg/mL; in assay [14], 5.92 µg/mL; in assay [15] it was above 50 µg/mL; in [16], above 50 µg/mL. The IC50 in assay [4] is above 50 µg/mL; in [8] it was 0.63 µg/mL; in assay [11], 0.89 µg/mL. For the same substance, the IC50, pseudovirus neutralization is above 25 µg/mL in [7], 0.16 µg/mL in assay [10] and 9.99 µg/mL in assay [17]. Moreover, in assay [10], the IC90 (pseudovirus neutralization) is 1.17 µg/mL.
